Laboratory results published in paper PMC9205196.

Legend:
[1] = biological target: FGFR1, biotinylated (UniProt P11362); experiment: AlphaScreen or HTRF
[2] = biological target: Recombinant human FGF2 (fibroblast growth factor-2), biotinylated (human); experiment: AlphaScreen or HTRF
[3] = biological target: Vitronectin (VN), biotinylated (UniProt P04004); experiment: AlphaScreen or HTRF
[4] = biological target: SDC1_(37): deglycosylated murine syndecan-1 ectodomain with p-propargyltyrosine at residue 37 (mouse) (UniProt P18828); experiment: ELISA
[5] = biological target: SDC1_(37HEP): murine syndecan-1 ectodomain with heparin conjugated at residue 37 (mouse) (UniProt P18828); experiment: ELISA
[6] = biological target: SDC1_(47HEP): murine syndecan-1 ectodomain with heparin conjugated at residue 47 (mouse) (UniProt P18828); experiment: ELISA
[7] = biological target: SDC1_(47HS): murine syndecan-1 ectodomain with heparan sulfate conjugated at residue 47 (mouse) (UniProt P18828); experiment: ELISA

| Substance | EC50 [1] [nM] | EC50 of ternary complex formation with soluble non-tagged FGF2 [1] [nM] | EC50 [2] [nM] | EC50 [3] [nM] | EC50 [4] [nM] | EC50 [5] [nM] | EC50 [6] [nM] | EC50 [7] [nM] |
| --- | --- | --- | --- | --- | --- | --- | --- | --- |
| SDC1_(47HEP): murine syndecan-1 ectodomain with heparin conjugated at residue 47 (from UniProt P18828 23-255) (domain or fragment) | 0.2 | 0.007 | 0.3 | – | – | – | – | – |
| SDC1_(37HEP): murine syndecan-1 ectodomain with heparin conjugated at residue 37 (from UniProt P18828 23-255) (domain or fragment) | 0.3 | 0.007 | 0.4 | 1 | – | – | – | – |
| Recombinant human αvβ3 integrin (from UniProt P06756-1 31-992; P05106 27-718) (complex) | – | – | – | – | 100 | 10 | 5 | 40 |
| SDC1_(37): deglycosylated murine syndecan-1 ectodomain with p-propargyltyrosine at residue 37 (from UniProt P18828 23-255) (domain or fragment) | > 20 | > 20 | > 100 | > 100 | – | – | – | – |
